Results as given in publication PMC8187709, “Structural basis for SARS-CoV-2 envelope protein recognition of human cell junction protein PALS1” (Nature Communications, 2021).

B1: PALS1 PSG (PDZ, SH3 and GK domains; residues 236–675 with a deletion between 411–460) (domain or fragment, human, UniProt Q8N3R9 236-675, looked up)
chain: PITDERVYESIGQYGGETVKIVRIEKARDIPLGATVRNEMDSVIISRIVKGGAAEKSGLLHEGDEVLEINGIEIRGKDVNEVFDLLSDMHGTLTFVLIPSQQIKPPPAKETVIHVKAHFDYDPSDDPYVPCRELGLSFQKGDILHVISQEDPNWWQAYREGDEDNQPLAGLVPGKEEILTYEEMSLYHQPANRKRPIILIGPQNCGQNELRQRLMNKEKDRFASAVPHTTRSRRDQEVAGRDYHFVSRQAFEADIAAGKFIEHGEFEKNLYGTSIDSVRQVINSGKICLLSLRTQSLKTLRNSDLKPYIIFIAPPSQERLRALLAKEGKNPKPEELREIIEKTREMEQNNGHYFDTAIVNSDLDKAYQELLRLINKLDTEPQWVPSTWLR
modifications: covalently labeled with dye NT647 (in the MST measurement only)
notes: PALS1, human cell junction protein; PDZ, SH3 and GK domains (PSG), residues 236–675, without the loop between the SH3 and GK domains (deletion between 411–460); codon-optimised synthetic gene in pET16-b; also called PASL1–PSG domains; source: E. coli BL21 (DE3) pLysS, purified (Ni-NTA, TEV cleavage, second Ni-NTA, SEC); not shown: 10x His, N-terminal, cleaved

Experiments:
[1] = target: the molecule itself; test: SEC; purified PSG on a TSKgel G3000SW column in 25 mM Tris pH 7.5, 100 mM NaCl, 1 mM TCEP
[2] = target: B1; test: MST; […]; 50 mM Tris pH 7.5, 100 mM NaCl, 1 mM DTT, 1 mM EDTA, 0.05% Tween 20; 10 min at room temperature; […]; settings: both partners purified

Binder	stoichiometry N [1]	Kd [2] [µM]
B1	2	–
VYSRVKNLNSSRVPDLLV (SARS-CoV-2 envelope (E) protein, 75 residues; also called E C-terminal peptide) [SARS-CoV-2 envelope (E) protein C-terminal 18-amino acid peptide (Ec18)]	–	11.2
